The values that follow are results of earlier work, collected in article PMC12731121.

Data set [1] has as its target Cathepsin H (Homo sapiens) (UniProt P09668).
The target in data set [2] is Cathepsin L (Homo sapiens) (UniProt P07711).
For data set [3], the target named is Cathepsin S (Homo sapiens) (UniProt P25774).
Data set [4] concerns the target D-dopachrome tautomerase (MIF-2) (Homo sapiens) (UniProt P30046).
Data set [5] addresses MIF (Homo sapiens) (UniProt P14174).

Sequence of CD74 p41 thyropin domain (P04233 210-271): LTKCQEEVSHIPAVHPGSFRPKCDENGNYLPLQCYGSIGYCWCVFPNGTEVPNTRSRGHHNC
Sequence of CD74 (P04233 73-296): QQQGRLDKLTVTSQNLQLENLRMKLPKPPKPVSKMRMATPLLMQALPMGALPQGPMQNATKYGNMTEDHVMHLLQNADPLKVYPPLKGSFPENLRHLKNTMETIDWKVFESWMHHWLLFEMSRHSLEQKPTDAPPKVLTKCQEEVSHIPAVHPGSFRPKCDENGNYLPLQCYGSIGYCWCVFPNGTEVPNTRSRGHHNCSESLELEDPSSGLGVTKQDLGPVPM
Sequence of MIF (Homo sapiens) (P14174 2-115): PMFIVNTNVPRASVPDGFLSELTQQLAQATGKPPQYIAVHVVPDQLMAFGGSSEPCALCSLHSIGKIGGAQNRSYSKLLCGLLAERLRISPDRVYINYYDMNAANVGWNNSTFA
Sequence of Cathepsin L (Homo sapiens) (P07711 292-333): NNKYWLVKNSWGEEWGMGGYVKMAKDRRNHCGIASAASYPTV
Sequence of D-dopachrome tautomerase (MIF-2) (Homo sapiens) (P30046 2-118): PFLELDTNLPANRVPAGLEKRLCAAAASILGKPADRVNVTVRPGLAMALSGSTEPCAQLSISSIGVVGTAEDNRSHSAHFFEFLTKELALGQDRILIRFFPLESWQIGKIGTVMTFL
Sequence of Cathepsin S (Homo sapiens) (P25774 115-331): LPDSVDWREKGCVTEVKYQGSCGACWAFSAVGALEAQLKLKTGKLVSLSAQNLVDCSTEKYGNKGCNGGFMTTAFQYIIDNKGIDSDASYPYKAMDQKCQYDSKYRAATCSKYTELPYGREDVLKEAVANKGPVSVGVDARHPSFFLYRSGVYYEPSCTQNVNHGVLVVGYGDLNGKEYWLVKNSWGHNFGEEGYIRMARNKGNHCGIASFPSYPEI
Sequence of Cathepsin H (Homo sapiens) (P09668 whole entry, looked up): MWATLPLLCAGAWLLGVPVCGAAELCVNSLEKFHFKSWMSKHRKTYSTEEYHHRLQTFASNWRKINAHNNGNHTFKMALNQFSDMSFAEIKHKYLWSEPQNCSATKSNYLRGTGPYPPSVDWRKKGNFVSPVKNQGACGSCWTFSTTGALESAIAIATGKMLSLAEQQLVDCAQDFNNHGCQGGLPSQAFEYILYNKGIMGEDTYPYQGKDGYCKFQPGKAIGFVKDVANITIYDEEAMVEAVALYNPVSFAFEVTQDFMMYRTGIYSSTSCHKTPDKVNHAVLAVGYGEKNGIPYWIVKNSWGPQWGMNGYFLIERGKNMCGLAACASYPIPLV

One may read the Ki as a measure of affinity in units of concentration, obtained from inhibition or displacement. As for “CD74 p41 thyropin domain (from UniProt P04233)”, the Ki in data set [1] was 5.3 nM; in data set [2] it was 0.0017 nM; in data set [3], 208 nM.
Usually Kd stands for the constant that tells how readily two partners part at equilibrium. As for CD74 (from UniProt P04233), the Kd in data set [4] was 5.4 nM; in data set [5], 1.4 nM.
